Measured values reported in patent US10113152B1, “Variant polypeptides capable of aminating aliphatic alpha keto acids” (AbbVie Inc., priority 2014, dated 2018).
Numbering of substitutions follows the chain as printed. In names and notes the source's numbering stands.

B1: wild-type B. cereus LDH: wild-type B. cereus leucine dehydrogenase, amino acid sequence SEQ ID NO:1 (UniProt P0A392), cell-free extract from E. coli (protein, listed as Bacillus cereus)
chain: MTLEIFEYLEKYDYEQVVFCQDKESGLKAIIAIHDTTLGPALGGTRMWTYDSEEAAIEDALRLAKGMTYKNAAAGLNLGGAKTVIIGDPRKDKSEAMFRALGRYIQGLNGRYITAEDVGTTVDDMDIIHEETDFVTGISPSFGSSGNPSPVTAYGVYRGMKAAAKEAFGTDNLEGKVIAVQGVGNVAYHLCKHLHAEGAKLIVTDINKEAVQRAVEEFGASAVEPNEIYGVECDIYAPCALGATVNDETIPQLKAKVIAGSANNQLKEDRHGDIIHEMGIVYAPDYVINAGGVINVADELYGYNRERALKRVESIYDTIAKVIEISKRDGIATYVAADRLAEERIASLKNSRSTYLRNGHDIISRR
B2: L42V: variant B. cereus leucine dehydrogenase, leucine at position 42 substituted by valine, SEQ ID NO:5 (protein)
chain: B1 chain with L42V
B3: L42G: variant B. cereus leucine dehydrogenase, leucine at position 42 substituted by glycine, SEQ ID NO:6 (protein)
chain: B1 chain with L42G
B4: L42I: variant B. cereus leucine dehydrogenase, leucine at position 42 substituted by isoleucine, SEQ ID NO:4 (protein)
chain: B1 chain with L42I
B5: L42A: variant B. cereus leucine dehydrogenase, leucine at position 42 substituted by alanine, SEQ ID NO:20 (protein)
chain: B1 chain with L42A
B6: L42K: variant B. cereus leucine dehydrogenase (SEQ ID NO:1) with lysine at position 42 (protein, listed as Bacillus cereus)
chain: B1 chain with L42K
B7: L42D: variant B. cereus leucine dehydrogenase (SEQ ID NO:1) with aspartic acid at position 42 (protein, listed as Bacillus cereus)
chain: B1 chain with L42D
B8: L42Y: variant B. cereus leucine dehydrogenase (SEQ ID NO:1) with tyrosine at position 42 (protein, listed as Bacillus cereus)
chain: B1 chain with L42Y
B9: L42S: variant B. cereus leucine dehydrogenase (SEQ ID NO:1) with serine at position 42 (protein, listed as Bacillus cereus)
chain: B1 chain with L42S
B10: L42H: variant B. cereus leucine dehydrogenase (SEQ ID NO:1) with histidine at position 42 (protein, listed as Bacillus cereus)
chain: B1 chain with L42H
B11: L42T: variant B. cereus leucine dehydrogenase (SEQ ID NO:1) with threonine at position 42 (protein, listed as Bacillus cereus)
chain: B1 chain with L42T

Assay: Reductive amination of 2-oxonon-8-enoic acid to (S)-LCAA by leucine dehydrogenase (NADH consumption at 340 nm, HPLC of aliquots)
Type: biochemical
Conditions: by four hours; 10 mM 2-oxonon-8-enoic acid, 2 M NH4Cl/OH, pH 9.5, 30° C., GDH/glucose NADH regeneration; FIG. 3
Description: (§1) To produce (S)-LCAA from 2-oxonon-8-enoic acid, a reaction was performed under the following conditions. In 200 mL total volume and a buffered pH of 9.5, the aqueous reaction mixture contained 10 mM 2-oxonon-8-enoic acid, 12 mM glucose, 1 mM NAD^+, 50 mg of purified glucose dehydrogenase (GDH-105; Codexis, Redwood City, Calif.), 2 M NH4Cl/OH, and approximately 60 mL/L of purified leucine dehydrogenase cell-free extract. FIG. 2 depicts the reaction scheme for converting 2-oxonon-8-enoic acid to (S)-LCAA using leucine dehydrogenase. The mixture was incubated at 30° C. and with shaking at 150 rpm for four hours.
Enzyme activity was measured spectrophotometrically by monitoring the consumption of NADH in the reductive amination at 340 nm. Activity was defined as the number of micromoles of NADH consumed in 1 minute (μmol min^−1). Aliquots of the reaction mixture were obtained periodically during the course of the reaction and subjected to analysis by high performance liquid chromatography (HPLC).
To increase the affinity of LDH for the 2-oxonon-8-enoic acid substrate and, thus, enhance the enzyme's activity for producing (S)-LCAA, amino acid substitutions were made within the region of LDH that binds to the substrate. Specifically, amino acid substitutions were introduced at position 42 of B. cereus leucine dehydrogenase (SEQ ID NO:1) using standard mutagenesis techniques. Wild-type B. cereus LDH, along with 19 variants (one for each amino acid substitution at position 42) were expressed and isolated as described in Example 1. The enzymatic activity of the variant proteins was evaluated alongside wild-type B. cereus LDH in the reaction described in Example 1. […] While the disclosure is not bound by any particular theory or mechanism of action, the substitutions that increased the enzymatic activity of the LDH enzyme are believed to have increased the depth of the substrate binding pocket in LDH and thereby increased the affinity of LDH for the 2-oxonon-8-enoic acid substrate.
With B1 the “conversion of the substrate to LCAA” value was “greater than 99.5%”.

Same assay, conditions: reaction described in Example 1; conversion of 2-oxonon-8-enoic acid to (S)-LCAA
In the case of B2, the “increase in reaction rate relative to wild-type B. cereus LDH” value is reported as “approximately 1×10^3”.
For B3, the “increase in reaction rate relative to wild-type B. cereus LDH” value was “approximately 1×10^3”.

Same assay, conditions: reaction described in Example 1; conversion of 2-oxonon-8-enoic acid to (S)-LCAA; FIG. 5
In the case of B4, the “enzymatic activity (reaction rate) relative to wild-type B. cereus LDH” value is reported as “significantly enhanced activity”.
For B5, the “enzymatic activity (reaction rate) relative to wild-type B. cereus LDH” value was “enhanced activity”.
With B6 the “enzymatic activity (reaction rate) relative to wild-type B. cereus LDH” value was “reduced activity”.
For B7, the “enzymatic activity (reaction rate) relative to wild-type B. cereus LDH” value was “reduced activity”.
For B8, the “enzymatic activity (reaction rate) relative to wild-type B. cereus LDH” value was “reduced activity”.
With B9 the “enzymatic activity (reaction rate) relative to wild-type B. cereus LDH” value was “enhanced activity”.
For B2, the “enzymatic activity (reaction rate) relative to wild-type B. cereus LDH” value was “significantly enhanced activity”.
In the case of B3, the “enzymatic activity (reaction rate) relative to wild-type B. cereus LDH” value is reported as “significantly enhanced activity”.
With B10 the “enzymatic activity (reaction rate) relative to wild-type B. cereus LDH” value was “reduced activity”.
With B11 the “enzymatic activity (reaction rate) relative to wild-type B. cereus LDH” value was “enhanced activity”.

Assay: HPLC analysis of the percentage of (S)-enantiomer in the LCAA reaction product
Type: biochemical
Conditions: LCAA product of the Example 1 reaction, FIG. 4
Description: as §1
To determine what percentage of the LCAA reaction product of the reaction was (S)-LCAA, aliquots of the reaction mixture were analyzed using high performance liquid chromatography (HPLC).
With B1 the “percentage of the reaction product that was the (S)-enantiomer” value was “greater than 99.5%”.
